Measurements taken from article PMC4966837 (mAbs, 2015).

B1: CSL311 (human IgG4-kappa monoclonal antibody) (antibody, V domains shown)
VH: EVQLLESGGGLVQPGGSLRLSCAASGFTFPWYRVHWVRQAPGKGLEWVSSIRSSGGFPYYNYKVKGRFTISRDNSKNTLYLQMNSLRAEDTAVYYCARFYDSFFDIWGQGTMVTVSS
VL: DIQMTQSPSSVSASVGDRVTITCRASQGISSWLAWYQQKPGKAPKLLIYAASSLQSGVPSRFSGSGSGTDFTLTISSLQPEDFATYYCQQANSFPITFGQGTRLEIK
B2: CSL311 Fab fragment (Fab, V domains shown)
VH: B1 VH
VL: B1 VL

Biological target: human βc receptor on cells (TF-1 cells, human neutrophils, human eosinophils) (Homo sapiens, UniProt P32927)
Sequence (P32927 17-897): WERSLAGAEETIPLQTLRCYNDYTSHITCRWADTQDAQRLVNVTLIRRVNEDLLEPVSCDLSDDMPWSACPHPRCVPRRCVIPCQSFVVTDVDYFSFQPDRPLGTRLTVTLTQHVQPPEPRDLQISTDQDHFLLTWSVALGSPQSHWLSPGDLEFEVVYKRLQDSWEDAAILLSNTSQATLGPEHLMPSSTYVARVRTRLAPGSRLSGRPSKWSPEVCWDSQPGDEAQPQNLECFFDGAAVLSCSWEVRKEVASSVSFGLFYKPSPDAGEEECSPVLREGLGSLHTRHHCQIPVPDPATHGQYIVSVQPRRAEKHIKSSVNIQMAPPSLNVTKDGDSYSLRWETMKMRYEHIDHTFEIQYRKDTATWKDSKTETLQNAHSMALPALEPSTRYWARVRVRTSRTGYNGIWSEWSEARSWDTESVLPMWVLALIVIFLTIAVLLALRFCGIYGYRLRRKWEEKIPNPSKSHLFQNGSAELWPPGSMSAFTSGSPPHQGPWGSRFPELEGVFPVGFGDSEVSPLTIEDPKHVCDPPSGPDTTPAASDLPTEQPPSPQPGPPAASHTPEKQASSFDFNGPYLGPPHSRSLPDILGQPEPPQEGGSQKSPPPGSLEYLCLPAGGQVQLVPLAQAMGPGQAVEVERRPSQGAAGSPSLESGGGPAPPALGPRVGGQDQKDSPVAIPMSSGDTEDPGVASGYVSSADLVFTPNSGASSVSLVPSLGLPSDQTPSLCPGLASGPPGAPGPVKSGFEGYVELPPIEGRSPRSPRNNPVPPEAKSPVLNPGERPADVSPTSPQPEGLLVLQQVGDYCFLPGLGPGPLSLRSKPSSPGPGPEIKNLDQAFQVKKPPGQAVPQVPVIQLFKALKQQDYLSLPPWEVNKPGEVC
Assay: radioligand binding

Row | Binder | Kd [pM]
1 | B1 | 250 to 730
2 | B2 | 380 to 670
